Columns and labels:
[1] = target: Tau in cerebrospinal fluid of cynomolgus monkeys (free Tau / extracellular Tau, eTau) (cynomolgus monkey (Macaca fascicularis)); experiment: estimate from a PK/PD model fitted to free eTau (ELISA) in CSF of cynomolgus monkeys dosed with hu-IPN002; not a direct binding assay
[2] = target: Tau in cerebrospinal fluid of cynomolgus monkeys (free Tau / extracellular Tau, eTau) (cynomolgus monkey (Macaca fascicularis)); experiment: cell-based or functional assay

Kd [1]: 0.16 nM | free eTau level in CSF between 8 and 168 hours, 20 mg/kg dose (% of baseline) [2]: 1.35 to 7.44 | free eTau level in CSF between 48 and 96 hours, 5 mg/kg dose (% of baseline) [2]: 17.3 to 21 | maximal reduction of CSF free eTau, single 5 mg/kg IV dose in cynomolgus monkeys [2]: 83% | maximal reduction of CSF free eTau, single 20 mg/kg IV dose in cynomolgus monkeys [2]: 99%
B1: hu-IPN002 (antibody, IgG4, V domains shown)
VH: EVHLVESGGALVKPGGSLRLSCAASGFSFSKYGMSWVRQAPGKGLEWVATISSSGSRTYYPDSVKGRFTISRDNAKNTLYLQMNSLRAEDTAMYYCSISWDGAMDYWGQGTTVTVSS
VL: DVVMTQSPLSLPVTLGQPASISCKSSQSIVHSNGNTYLEWYLQKPGQSPQLLVYKVSNRFSGVPDRFSGSGSGTDFTLKISRVEAEDVGTYYCFQGSLVPWAFGGGTKVEIK
